The results in this text go back to patent US20070207967A1, “Peptide Inhibitors of Matrix Metalloproteinase Activity” (CTT CANCER TARGETING TECHNOLOGIES OY, priority 2004, published 2007).

In assay [1] the target is T1, pro-MMP-9 (Homo sapiens, UniProt P14780). Put plainly: Plasmin/MMP-3-mediated pro-MMP-9 activation in HT1080 cells, zymography. It is filed as cell-based. The note with it: PDBu-activated HT1080, plasminogen, peptides 200 μM. As for the experimental part: Activation of MMP-9. THP-1 cells (40 000/100 μl) or confluent HT1080 cells were incubated for 16 h in the presence or absence of 2.5 μg/ml plasminogen, 0.5 μg/ml pro-MMP-3 (Oncogene Research Products), 40 nM PDBu, and the peptides at a 200 μM concentration unless otherwise indicated. Aliquots of the conditioned media were analyzed by gelatin zymography (9). […] The samples were analyzed by gelatin zymography.

The target in another assay is αM integrin I domain (Homo sapiens, UniProt P11215). Put plainly: Pro-MMP-9 binding to αM integrin I domain. As for the experimental part:
Pro-MMP-9 and gelatin binding to leukocyte αM integrin. Pro-MMP-9 binding to the αM I domain in the presence of peptides was studied as described (12). Gelatin binding to the pro-MMP-^9/αMβ2 integrin complex was studied by immobilizing the integrin αMβ2 (12) or αIIbβ3 as a control (Enzyme Research Laboratories, South Bend, Ind.) (1 μg/well) in TBS/1 mM CaCl2/1 mM MgCl2 followed by saturation of the wells with 1% BSA in PB ST. Pro-MMP-9 (100 ng/well) was incubated for 2 h and the unbound pro-MMP-9 was washed away. Biotinylated gelatin (2.5 μg/ml) was allowed to bind for 30 min at room temperature. Bound gelatin was detected with streptavidin-peroxidase.

The test system of the next assay is THP-1 monocytic cells. Nature of the assay: THP-1 cell migration on GST-LLG-C4. In kind it is cell-based, human. The note with it: GST-LLG-C4 substratum, 16 h. As for the experimental part: Cell migration and invasion. The cell migration assay was conducted using transwell migration chambers (8 μm pore size, Costar) in 10% serum-containing medium (2,14). Briefly, the membranes were coated on both sides with 40 μg/ml GST or with the β2 integrin ligand peptide […]-GST fusion (GST-LLG-C4) and blocked with complete medium. THP-1 cells (50 000/100 μl) were preincubated with the peptides for 1 h in serum-containing medium. The cells were allowed to migrate for 16 h and were then stained with crystal violet and counted (14). The HT1080 (20 000 cells/I100 μl) invasion assay was performed as the THP-1 migration, except that matrigel coated transwells (BD Biosciences) were used.

Assay [2] has as its target T2, aminophenylmercuric acetate (APMA)-activated MMP-2 (Homo sapiens, UniProt P08253).
T2 sequence (P08253 110-660): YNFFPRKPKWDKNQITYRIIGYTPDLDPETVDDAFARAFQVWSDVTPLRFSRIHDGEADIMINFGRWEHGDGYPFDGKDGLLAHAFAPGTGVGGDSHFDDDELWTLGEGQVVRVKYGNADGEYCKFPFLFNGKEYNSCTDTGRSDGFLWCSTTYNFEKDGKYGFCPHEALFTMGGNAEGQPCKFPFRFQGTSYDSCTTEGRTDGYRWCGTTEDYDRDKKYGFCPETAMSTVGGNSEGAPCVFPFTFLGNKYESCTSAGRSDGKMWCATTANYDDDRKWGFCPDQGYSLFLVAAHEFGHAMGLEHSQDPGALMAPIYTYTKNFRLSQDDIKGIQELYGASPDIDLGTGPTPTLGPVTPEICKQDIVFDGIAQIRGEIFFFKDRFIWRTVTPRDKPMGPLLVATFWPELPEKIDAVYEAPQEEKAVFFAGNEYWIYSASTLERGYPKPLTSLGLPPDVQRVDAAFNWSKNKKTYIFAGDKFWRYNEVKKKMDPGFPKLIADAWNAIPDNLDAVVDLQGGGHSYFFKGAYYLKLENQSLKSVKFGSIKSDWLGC
Nature of the assay: Gelatinase inhibition assay (gelatin degradation), MMP-2. It is filed as biochemical. The note with it: biotinylated gelatin substrate. As for the experimental part:
Gelatinase inhibition assay. Inhibition of aminophenylmercuric acetate (APMA)-activated MMP-2 and trypsin-activated MMP-9 was performed using biotinylated gelatin as a substrate (15).

The next assay relates to HT1080 cells. Put plainly: HT1080 cell adhesion to vitronectin or fibronectin. In kind it is cell-based, human. The note with it: proteins 40 μg/ml, CRV peptide 200 μM. As for the experimental part:
Cell adhesion. HT1080 cells were allowed to adhere on vitronectin or fibronectin (2 μg/ml) in the presence or absence of peptides (200 μM), proteins (40 μg/ml) or a monoclonal anti-αvβ5 integrin antibody P1F6 (Chemicon) or a control antibody (25 μg/ml). The adhesion was quantified as described (14). Adhesion of THP-1 cells to immobilized KIM127 or control monoclonal antibodies (2 μg/ml) was done in the presence or absence of soluble proteins (50 μg/ml) or antibodies (25 μg/ml).

Another assay addresses T3, CBD (Homo sapiens, UniProt P14780).
T3 construct: CBD (amino acids Gly^204-Gly^373) was amplified from MMP-9 cDNA; made in house; host or cells: E. coli
Nature of the assay: Gelatin binding to immobilized CBD. To be noted: biotinylated gelatin. As for the experimental part: Gelatin and CBD binding assays. Recombinant CBD or human plasma fibronectin (Calbiochem) (0.2 μg/ml in TBS) was immobilized in microtiter wells. The wells were saturated with 1% BSA-PBST. Biotinylated gelatin (0.2 μg/ml in 1% BSA-PBST) was added with or without peptides at the concentrations indicated or with an excess of unlabelled gelatin (10 μg/ml) and allowed to bind for 1 h. Bound gelatin was detected with streptavidin-peroxidase. CBD binding to immobilized fibronectin, the 110-kDa fragment of fibronectin (Upstate Biotechnology) or urea-denaturated human plasma vitronectin (17) (1 μg/well) was studied using biotinylated CBD (5 μg/ml) in 1% BSA-PBST in the presence or absence of 20 μM peptides.

Assay [3] concerns the target T1, pro-MMP-9. Put plainly: Phage binding to pro-MMP-9 with competitors. The note with it: competitor peptides 20 μM, gelatin 2.5 μg/ml. As for the experimental part:
Phage display. Phage display selections were made using random peptide libraries CX7-10C and X9-10 (13). Purified human pro-MMP-9 (9) or recombinant MMP-9 C domain (2 μg/ml) was immobilized on microtiter wells and the wells were blocked with BSA. The phage were added in 50 mM Hepes (pH 7.5)/5 mM CaCl2/1 μM ZnCl2/150 mM NaCl/2% BSA. After three rounds of selection the phage sequences were determined (14). The phage binding specificity was tested with pro-MMPs or the recombinant domains (20 ng/well). The phage (10^8 transducing units/well) were allowed to bind in the absence or presence of competitor peptides (20 μM), gelatin (2.5 μg/ml) or TIMP-1 (2.5 μg/ml, Calbiochem) followed by washings with PBS/0.05% Tween20 (PBST). The phage were detected with a peroxidase-conjugated anti-phage antibody (Amersham Biosciences).

T1 sequence (P14780 20-707 limits assumed): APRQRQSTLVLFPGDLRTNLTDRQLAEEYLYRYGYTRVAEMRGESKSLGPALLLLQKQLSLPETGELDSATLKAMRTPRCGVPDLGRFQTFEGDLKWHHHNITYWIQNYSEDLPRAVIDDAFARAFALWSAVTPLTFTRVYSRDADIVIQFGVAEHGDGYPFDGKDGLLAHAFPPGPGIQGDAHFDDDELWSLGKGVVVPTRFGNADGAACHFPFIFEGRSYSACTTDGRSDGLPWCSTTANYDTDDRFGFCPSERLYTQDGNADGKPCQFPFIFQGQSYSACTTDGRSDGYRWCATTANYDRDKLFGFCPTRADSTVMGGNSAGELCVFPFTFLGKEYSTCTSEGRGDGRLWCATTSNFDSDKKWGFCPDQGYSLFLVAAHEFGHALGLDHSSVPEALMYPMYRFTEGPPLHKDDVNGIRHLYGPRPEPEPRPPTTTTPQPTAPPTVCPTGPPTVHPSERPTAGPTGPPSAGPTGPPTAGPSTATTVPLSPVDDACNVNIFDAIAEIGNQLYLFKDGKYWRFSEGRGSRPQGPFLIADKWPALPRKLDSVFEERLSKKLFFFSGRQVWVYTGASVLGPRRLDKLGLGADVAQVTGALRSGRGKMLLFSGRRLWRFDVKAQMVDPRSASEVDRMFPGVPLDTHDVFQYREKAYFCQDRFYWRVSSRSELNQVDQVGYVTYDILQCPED
T3 sequence (P14780 223-392 limits assumed): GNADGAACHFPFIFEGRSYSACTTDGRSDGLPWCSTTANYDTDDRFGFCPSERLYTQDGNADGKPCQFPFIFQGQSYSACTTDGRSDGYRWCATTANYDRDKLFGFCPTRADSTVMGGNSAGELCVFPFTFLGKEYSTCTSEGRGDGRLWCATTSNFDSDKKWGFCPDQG
Sequence of αM integrin I domain (P11215 150-328 limits assumed): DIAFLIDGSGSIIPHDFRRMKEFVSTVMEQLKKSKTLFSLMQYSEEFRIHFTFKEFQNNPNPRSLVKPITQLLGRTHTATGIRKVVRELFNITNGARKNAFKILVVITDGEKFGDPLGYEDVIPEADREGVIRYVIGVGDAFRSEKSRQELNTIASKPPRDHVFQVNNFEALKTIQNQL

Regarding CRVYGPYLLC, the “Inhibition of pro-MMP-9 activation” value with pro-MMP-9 [1] is “inhibited pro-MMP-9 activation strongly”. Moreover, in the assay with αM integrin I domain, the “Effect on interaction of MMP-9 with the leukocyte αM integrin I domain” value was “do not affect”. The “Inhibition of THP-1 migration” value with THP-1 monocytic cells is given as “inhibitory effect”. Besides, the “Inhibition of MMP-2 activity in gelatin degradation assay” value in assay [2] is given as “did not inhibit”. In the assay on HT1080 cells, the “Inhibition of HT1080 cell adhesion to vitronectin or fibronectin” value is reported as “Neither”. The “Inhibition of gelatin binding to immobilized CBD” value in the assay with CBD is listed as “not”. For the same sequence, the “Binding of PPC peptide-bearing phage to pro-MMP-9, competition” value with pro-MMP-9 [3] is given as “not”. Further, in the assay with pro-MMP-9 [3] (TIMP-1 2.5 μg/ml), the “Binding of the CRV-phage to pro-MMP-9, competition” value is on record as “inhibited”.
